From patent publication CN116425870A (UNIV SHAANXI NORMAL, dated 2023)

Target: T1, SARS-COV-2病毒N蛋白 (SARS-COV-2, UniProt P0DTC9 1-419)
T1 construct: also called 新型冠状病毒N蛋白; SARS-COV-2N蛋白
Experiment: ELISA, N protein coated 100 ng/well, supernatant of transfected Expi293F cells

B1: 31A8抗体重链31A8mG1 (heavy chain transfected alone) (other)
VH: EVQLQQSGPELVKPGASVKISCKTSGYTFTKYTMHWVKQSHGKSLEWIGGINPNNGGNSYNQKFKGKATLTVDKSSSTAYMELRSLTSEDSAVYYCATPDYWGQGTTLTVSS
B1: no binding.
